Experimental data as given in patent US5863776A, “Method of preparing apoenzyme” (Research Development Foundation, priority 1996, dated 1999).
Each block holds one molecule with its values, some of them ahead of it.

Key:
[1] = target: T1, MAO B (Homo sapiens, UniProt P27338); assay: Quantitation of expressed MAO B protein by ELISA in transfected COS-7 cells; type: cell-based; parameters: MAO B Expressed: unit not given here
T1 construct: expressed in transfected cells; host or cells: COS-7 (African green monkey), riboflavin-containing (Rib+) or riboflavin-depleted (Rib-), transient electroporation
T1 sequence (P27338 1-520): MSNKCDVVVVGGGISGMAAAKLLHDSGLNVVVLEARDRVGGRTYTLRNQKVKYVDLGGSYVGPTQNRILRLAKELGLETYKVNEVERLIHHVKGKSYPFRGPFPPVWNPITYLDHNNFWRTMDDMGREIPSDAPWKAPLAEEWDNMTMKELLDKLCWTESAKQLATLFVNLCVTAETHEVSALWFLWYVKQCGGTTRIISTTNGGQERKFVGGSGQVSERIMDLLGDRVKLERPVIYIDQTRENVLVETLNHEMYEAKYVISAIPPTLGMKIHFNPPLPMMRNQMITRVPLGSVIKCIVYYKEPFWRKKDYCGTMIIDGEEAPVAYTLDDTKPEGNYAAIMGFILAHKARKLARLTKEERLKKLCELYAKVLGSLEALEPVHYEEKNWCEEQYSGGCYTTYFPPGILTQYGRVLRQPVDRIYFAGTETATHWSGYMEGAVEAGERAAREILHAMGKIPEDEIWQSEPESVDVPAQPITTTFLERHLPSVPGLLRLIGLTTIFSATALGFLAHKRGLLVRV
Method: (§1) Total protein concentrations of samples containing MAO B holoenzyme, apoenzyme, or variant MAO Bs were determined by a MicroBCA kit (Pierce). All samples were then adjusted to equal protein concentrations and assayed for MAO B protein by ELISA using a modification of the method of Yeomanson and Billett (25) as described previously (18).
MAO B cDNA was expressed sequentially at different time intervals in these cells during this riboflavin depletion process (FIG. 2). Each data point in FIG. 2 represents an individual expression assay. For each assay, a sample of COS-7 cells grown in riboflavin-free medium were transfected with MAO B cDNA via electroporation. Concurrently, Rib^+ COS-7 cells were transfected with MAO B cDNA to serve as a control. Following incubation for 48 hours, the cells were homogenized and assays were performed to determine protein concentration, MAO B concentration by ELISA using polyclonal antibodies, and MAO B activity using [^14 C] benzylamine.
An equal amount of MAO B cDNA (15 μg) was expressed in both types of […]

[2] = target: T1, MAO B; assay: MAO B enzymatic activity in COS-7 cells during riboflavin depletion; type: cell-based
Method: Mammalian COS-7 cells were grown in Dulbecco's Modified Eagle Medium (DMEM, Gibco) supplemented with 10% fetal bovine serum (FBS, Gibco) at 37° C. with 5% CO2. Since this medium (DMEM+10% FBS) contains riboflavin, COS-7 cells grown in this medium were defined as riboflavin-containing COS-7 cells (Rib^+ COS-7 cells). MAO B holoenzyme was obtained by expressing MAO B cDNA in Rib^+ COS-7 cells. Mammalian COS-7 cells were also grown in riboflavin-free medium (riboflavin-free DMEM+10% dialyzed FBS, Gibco) at 37° C. with 5% CO2, with fresh riboflavin-free medium changed every 48-72 hours. COS-7 cells grown in riboflavin-free medium for longer than 100 days were defined as riboflavin-depleted (Rib^-) COS-7 cells. Apo-MAO B was obtained by expressing MAO B cDNA in Rib^- COS-7 cells. COS-7 cells were grown in riboflavin-free medium for greater than 5 months without any detectable change in morphology.
Wild-type or mutant MAO B cDNAs were transiently transfected into COS-7 cells by electroporation (23) as previously described (18). […]
MAO B activity was assayed radiometrically by a modification of the method of Wurtman and Axelrod (26) as described previously (18). […] The reaction product was extracted with 500 μl of toluene, and an aliquot (200 μl) of the organic phase from each sample was counted in liquid scintillation fluid (Bio-Safe) in a Beckman LB 3801 scintillation counter. […]

[3] = target: T1, MAO B; assay: FAD coupling in intact cells: MAO B enzymatic activity after electroporation of MAO B cDNA with cofactor into Rib^- COS-7 cells ([^14 C] benzylamine substrate); type: cell-based; parameters: Percent of Holo-MAO B Activity: concentration or dose not given beside the values
Method: Wild-type or mutant MAO B cDNAs were transiently transfected into COS-7 cells by electroporation (23) as previously described (18). Briefly, Rib^+ - or Rib^- COS-7 cells were harvested during late log phase growth and resuspended to a concentration of 3.1×10^6 cells/ml in either riboflavin-containing or riboflavin-free medium, respectively. Wild-type or mutant MAO B cDNAs ([…]) were added to 0.8 ml of cell suspension. […] Electroporation was carried out in a Bio-Rad Gene Pulser with a setting of 250 V and 500 μF. Cells were resuspended in 15 ml of riboflavin-containing or riboflavin-free medium and incubated at 37° C. with 5% CO2. Transfected COS-7 cells were harvested at 48 hours and homogenized in a lysis solution containing 20 mM Tris-HCl, 1 mM EDTA, 0.5 mM PMSF, pH 8.0. The homogenate was diluted with an equal volume of the same buffer supplemented with 300 mM NaCl to obtain a 150 mM final NaCl concentration. Triton X-100 (Pierce) was added to the lysate to give a final concentration of 0.25%, and the samples were allowed to stir for 50 min. at 4° C. to extract MAO B from the outer mitochondrial membrane. After Triton extraction, the lysate was centrifuged at 1300×g for 5 min. at 4° C. to remove insoluble cell debris.
(§2) MAO B activity was assayed radiometrically by a modification of the method of Wurtman and Axelrod (26) as described previously (18). Briefly, the reaction mixture contained 200 μl of 50 mM sodium phosphate buffer (pH 7.4), 3.6 nmole of 55 mCi/mmol [^14 C] benzylamine hydrochloride (Amersham), 10 nmoles of unlabeled benzylamine and 10 μl of cell lysate. Samples were run in triplicate, and one out of each set was denatured with […] of 6N HCl prior to the addition of substrate to serve as an internal control. All reactions were incubated for 9 minutes at 37° C., and terminated by the addition of 25 μl of 6N HCl. The reaction product was extracted with 500 μl of toluene, and an aliquot (200 μl) of the organic phase from each sample was counted in liquid scintillation fluid (Bio-Safe) in a Beckman LB 3801 scintillation counter.
FMN or riboflavin were also capable of restoring approximately 75% of MAO B holoenzyme activity. However, only 40% of MAO B holoenzyme activity was obtained by the addition of 8α-hydroxyriboflavin.
Various cofactors were added with MAO B cDNA into Rib^- COS7 cells

[4] = target: T1, MAO B; assay: Subcellular fractionation of transfected Rib^+ and Rib^- COS-7 cells: distribution of MAO B and activity; type: cell-based; details: for Fraction activity: Rib^+ COS-7
Method: COS-7 subcellular fractionation was carried out with a modified method of Clark and Waterman (24). Transfected Rib^+ - or Rib^- COS-7 cells were harvested, washed twice with ice-cold PBS, and pelleted by microcentrifugation at 500×g for 5 minutes. The cells were then homogenized in a Dounce homogenizer. Greater than 95% of the cells were lysed, as determined by trypan blue staining. The homogenate was diluted with an equal volume of 10 mM Tris-HCl, 1 mM EDTA, pH 8.0, to obtain a 0.25M final sucrose concentration and layered over 0.5 volume of 0.5M sucrose pad (0.5M sucrose in 10 mM Tris-HCl, 1 mM EDTA, pH 8.0). The solution was centrifuged at 5,000 rpm for 3 minutes using a swinging bucket rotor (TLS.55, Beckman TL-100) to remove cell debris and nuclei (P1 fraction). The supernatant plus the interface of the 0.5M sucrose pad was again layered over another 0.5M sucrose pad, and centrifuged as above at 17,000 rpm for 20 minutes to isolate mitochondria (P2 fraction). The resulting supernatant was centrifuged at 70,000 rpm (TL100.3, Beckman TL-100) for 30 minutes to sediment microsomes (P3 fraction). The final supernatant was the cytosol (S). After subcellular fractionation, P1, P2 and P3 were resuspended in 20 mM Tris-HCl, 1 mM EDTA, 0.5 mM PMSF, 150 mM NaCl, pH 8.0. All samples were treated with Triton X-100 to extract MAO B, and then protein concentrations, MAO B concentrations and enzymatic activities were determined.
as §1, §2
Transfected Rib^+ or Rib^- COS7 cells (1.2 × 10^7

[5] = target: T1, MAO B; assay: FAD coupling in vitro (flavinylation assay in cell lysate, 30° C.); type: biochemical; details: up to 3 hours at 30° C.
Method: (- - - x - - - ). […] The enzymatic activity of each sample was determined at 1 hour time intervals using [^14 C] benzylamine as substrate.
Apo-MAO B was obtained by expressing MAO B cDNA in Rib^- COS-7 cells. The cells were then harvested and homogenized as described above. One half of the lysate was stirred in the presence of 0.25% Triton X-100 at 4° C. for 50 min. to extract apo-MAO B from the outer mitochondrial membrane. The second half of the lysate was not extracted with Triton X-100 to permit MAO B to remain in the membrane. […] Assays were also carried out in the presence of an energy mixture (10 mM ATP, 32 mM PEP and 2.4 μg pyruvate kinase) and 25% glycerol in the reaction vials. Each sample was run in triplicate. After 1, 2 or 3 hours incubation at 30° C., each sample was assayed for MAO B activity as described below.
as §2

[6] = COS-7 cells grown in riboflavin-free medium for 76 days
[7] = cofactor added with MAO B cDNA into Rib^- COS-7 cells, 48 hours, mean ± SE, three experiments
[8] = Mitochondria (P2), listed as holo-MAO B

Molecule: monoamine oxidase B [MAO B]
Expression [1, 6]: 0.90 μg MAO B/mg prot.
[MAO B] [1, 6]: 3.70 µg/mL
Expression ([1]; Rib^+ COS-7): 0.86 μg MAO B/mg prot.
[MAO B] ([1]; Rib^+ COS-7): 3.50 µg/mL
MAO B expression level ([1]; during riboflavin depletion, regardless of time in riboflavin-free medium): 0.95±0.04 μg/mg protein
MAO B activity, % of MAO B holoenzyme activity in Rib^+ COS-7 cells ([2]; 100 days in riboflavin-free medium): less than 5%
MAO B activity ([2]; after 116 days in riboflavin-free medium): nearly undetectable

Percent of Holo-MAO B Activity ([3]; relative to holo-MAO B expressed in Rib^+ COS-7 cells): 100%
MAO B Expressed [1, 7]: 1.05 ± 0.25
Fraction activity, percentage of total ([4]; Cell debris (P1)): 4.5%
MAO B amount ([4]; Cell debris (P1)): 58 ng
MAO B, percentage of total amount ([4]; Cell debris (P1)): 6.1%
Fraction activity, percentage of total ([4]; Cytosol (S)): 3.7%
MAO B amount ([4]; Cytosol (S)): 45 ng
MAO B, percentage of total amount ([4]; Cytosol (S)): 4.7%
Fraction activity, percentage of total ([4]; Microsome (P3)): 8.6%
MAO B amount ([4]; Microsome (P3)): 96 ng
MAO B, percentage of total amount ([4]; Microsome (P3)): 10%
Fraction activity, percentage of total ([4]; Mitochondria (P2)): 83.3%
MAO B amount ([4]; Mitochondria (P2)): 760 ng
MAO B, percentage of total amount ([4]; Mitochondria (P2)): 79.3%
Fraction activity, percentage of total [4, 8]: Approximately 80%
MAO B, percentage of total amount [4, 8]: Approximately 80%
Fraction activity ([4]; Cell debris (P1)): 0.6 10^-4 mmol/minute
Fraction activity ([4]; Cytosol (S)): 0.48 10^-4 mmol/minute
Fraction activity ([4]; Microsome (P3)): 1.11 10^-4 mmol/minute
Fraction activity ([4]; Mitochondria (P2)): 10.8 10^-4 mmol/minute
stability of enzymatic activity in cell lysate [5]: remained fully active
B1: Holo-MAO B: obtained by expressing MAO B cDNA in Rib^+ COS-7 cells, which served as a positive control (protein, UniProt P27338 2-520, looked up)
Amine oxidase …: SNKCDVVVVGGGISGMAAAKLLHDSGLNVVVLEARDRVGGRTYTLRNQKVKYVDLGGSYVGPTQNRILRLAKELGLETYKVNEVERLIHHVKGKSYPFRGPFPPVWNPITYLDHNNFWRTMDDMGREIPSDAPWKAPLAEEWDNMTMKELLDKLCWTESAKQLATLFVNLCVTAETHEVSALWFLWYVKQCGGTTRIISTTNGGQERKFVGGSGQVSERIMDLLGDRVKLERPVIYIDQTRENVLVETLNHEMYEAKYVISAIPPTLGMKIHFNPPLPMMRNQMITRVPLGSVIKCIVYYKEPFWRKKDYCGTMIIDGEEAPVAYTLDDTKPEGNYAAIMGFILAHKARKLARLTKEERLKKLCELYAKVLGSLEALEPVHYEEKNWCEEQYSGGCYTTYFPPGILTQYGRVLRQPVDRIYFAGTETATHWSGYMEGAVEAGERAAREILHAMGKIPEDEIWQSEPESVDVPAQPITTTFLERHLPSVPGLLRLIGLTTIFSATALGFLAHKRGLLVRV
modifications: FAD holoenzyme
notes: obtained by expressing MAO B cDNA in Rib^+ COS-7 cells, which served as a positive control
Enzymatic Activity [3, 7]: 1.13 ± 0.14 μmol benzylamine/minute/mg MAO
